No end group written: not given here.
Biological target: GLP-1R on Rinm cells
Test: cell-based or functional assay

cAMP activity in Rinm cells (EC50): 0.4 nM
Binder: HAEGTFTSDVSSYLEGQAAKEFIAWLVKGRG (not fully specified) [GLP-1 peptide]

From patent US20070135338A1 (published 2007)
